IntAct's records for PubMed 22466964

B1: Cullin-2 (Homo sapiens), Q13617 (parent)
chain: MSLKPRVVDFDETWNKLLTTIKAVVMLEYVERATWNDRFSDIYALCVAYPEPLGERLYTETKIFLENHVRHLHKRVLESEEQVLVMYHRYWEEYSKGADYMDCLYRYLNTQFIKKNKLTEADLQYGYGGVDMNEPLMEIGELALDMWRKLMVEPLQAILIRMLLREIKNDRGGEDPNQKVIHGVINSFVHVEQYKKKFPLKFYQEIFESPFLTETGEYYKQEASNLLQESNCSQYMEKVLGRLKDEEIRCRKYLHPSSYTKVIHECQQRMVADHLQFLHAECHNIIRQEKKNDMANMYVLLRAVSTGLPHMIQELQNHIHDEGLRATSNLTQENMPTLFVESVLEVHGKFVQLINTVLNGDQHFMSALDKALTSVVNYREPKSVCKAPELLAKYCDNLLKKSAKGMTENEVEDRLTSFITVFKYIDDKDVFQKFYARMLAKRLIHGLSMSMDSEEAMINKLKQACGYEFTSKLHRMYTDMSVSADLNNKFNNFIKNQDTVIDLGISFQIYVLQAGAWPLTQAPSSTFAIPQELEKSVQMFELFYSQHFSGRKLTWLHYLCTGEVKMNYLGKPYVAMVTTYQMAVLLAFNNSETVSYKELQDSTQMNEKELTKTIKSLLDVKMINHDSEKEDIDAESSFSLNMNFSSKRTKFKITTSMQKDTPQEMEQTRSAVDEDRKMYLQAAIVRIMKARKVLRHNALIQEVISQSRARFNPSISMIKKCIEVLIDKQYIERSQASADEYSYVA
partner: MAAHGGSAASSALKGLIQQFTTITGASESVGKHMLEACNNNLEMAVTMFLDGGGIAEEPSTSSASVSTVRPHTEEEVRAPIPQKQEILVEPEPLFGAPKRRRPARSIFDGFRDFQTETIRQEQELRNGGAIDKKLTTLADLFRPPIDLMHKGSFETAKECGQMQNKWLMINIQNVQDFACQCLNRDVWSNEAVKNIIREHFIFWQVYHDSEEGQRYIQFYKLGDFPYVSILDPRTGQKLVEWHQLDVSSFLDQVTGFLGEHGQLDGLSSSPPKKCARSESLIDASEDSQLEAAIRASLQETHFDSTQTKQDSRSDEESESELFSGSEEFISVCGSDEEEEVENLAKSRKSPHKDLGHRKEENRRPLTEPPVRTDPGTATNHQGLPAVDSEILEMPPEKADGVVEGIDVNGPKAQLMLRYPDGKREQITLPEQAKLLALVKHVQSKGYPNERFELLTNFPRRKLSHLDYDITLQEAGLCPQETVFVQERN
B2: UBX domain-containing protein 7 (Homo sapiens), O94888 (parent)
chain: B1 partner
B3: UBX domain-containing protein 5 (Saccharomyces cerevisiae), Q06682 (parent)
chain: MSEGKVDEFMAITGADDAAIATQFIEMADGNLNTAISLFFENGGAALLSSNNTPTPSNSTPMAPTSVDSDADAQLAERLQREAYQQQQPDQDYVRPPDEARHEVLTETSGFPISYGGIGGRFEPLHRVNDMFDEGRPESIFNQRLDDTNTNTYINDNSSDSLDSEEENDDDEYEYVEEPVIELDEDGNIKEYTKLVRKPKTISKEQKLALLFRPPFSIMSKLDLDAAKQKARAKQKWIMINIQDSGIFQCQALNRDLWSSRPVKTIIKENFVFLQYQYESRNAQPYLQFYHLNNKDDLPHIAILDPITGERVKQWNRVVPIPEQFISEINEFLASFSLDPKVPNPTVNEPLPKVDPTTLTEEQQMELAIKESLNNNSSKSNQEEVPSTGEEQKRVQEPDPFSTIEARVHPEPPNKPGITTRIQIRTGDGSRLVRRFNALEDTVRTIYEVIKTEMDGFADSRFTLNDHQREDLIDKLNMTIADAGLKNSSLLLEKLDPEIE
partner: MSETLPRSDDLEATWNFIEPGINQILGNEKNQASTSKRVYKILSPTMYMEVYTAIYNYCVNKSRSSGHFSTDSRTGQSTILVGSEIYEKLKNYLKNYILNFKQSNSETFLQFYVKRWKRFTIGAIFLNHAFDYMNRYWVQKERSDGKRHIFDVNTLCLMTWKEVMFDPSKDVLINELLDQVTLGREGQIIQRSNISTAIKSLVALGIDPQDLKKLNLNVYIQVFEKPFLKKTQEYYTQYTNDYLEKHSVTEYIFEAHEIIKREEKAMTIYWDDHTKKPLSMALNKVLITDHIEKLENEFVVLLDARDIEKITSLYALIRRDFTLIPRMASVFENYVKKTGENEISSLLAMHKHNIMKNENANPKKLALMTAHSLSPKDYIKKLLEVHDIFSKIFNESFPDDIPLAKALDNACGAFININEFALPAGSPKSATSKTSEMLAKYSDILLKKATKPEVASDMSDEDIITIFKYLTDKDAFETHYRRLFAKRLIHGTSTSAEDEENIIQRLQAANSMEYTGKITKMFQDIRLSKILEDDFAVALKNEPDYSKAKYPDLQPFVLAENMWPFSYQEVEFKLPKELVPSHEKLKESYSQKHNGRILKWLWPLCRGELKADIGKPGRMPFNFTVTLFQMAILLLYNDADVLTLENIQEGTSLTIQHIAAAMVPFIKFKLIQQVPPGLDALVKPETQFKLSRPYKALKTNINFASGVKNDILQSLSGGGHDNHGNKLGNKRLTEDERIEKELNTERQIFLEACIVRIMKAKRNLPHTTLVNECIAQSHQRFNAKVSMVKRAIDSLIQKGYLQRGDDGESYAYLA

Variants of: B1
Settings: with ubxn7_human UBXN7, O94888

| effect of a mutation on the interaction | Variant |
| --- | --- |
| disrupting interaction strength | K689R |

Variants of: B2
Settings: with cul2_human CUL2, Q13617

| effect of a mutation on the interaction | Variant |
| --- | --- |
| disrupting interaction strength | A293Q |
| disrupting interaction strength | E286R;L290E;A293Q |

Variants of: B3
Settings: with cdc53_yeast CDC53, Q12018

| effect of a mutation on the interaction | Variant |
| --- | --- |
| disrupting interaction strength | A368Q |
| disrupting interaction strength | E361R;M365E;A368Q |
